Earlier results, collected in paper PMC6331645.

Biological target: Raf1 RBD RBD (Homo sapiens) (UniProt P04049)

KRas (from UniProt P01116)
Kd: 20 nM
